Target: T1, Rv1495 (MazF homolog) (Mycobacterium tuberculosis, UniProt P9WII5 1-105)
T1 sequence: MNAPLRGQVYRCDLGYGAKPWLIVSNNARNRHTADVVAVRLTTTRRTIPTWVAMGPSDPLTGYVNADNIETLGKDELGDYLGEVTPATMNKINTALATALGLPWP
Experiment: EMSA

B1: 32-mer TopA substrate oligonucleotide (ssDNA)
DNA: CAGTGAGCGAGCTTCCGCTTGACATCCCAATA
binding result: no binding

Reference: paper PMC3001090
